Reference: US20200199244A1 (published 2020)

T1: Macaca fascicularis CD40 (Macaca fascicularis (cynomolgus monkey), UniProt P25942 21-277 (human entry))
T1 chain: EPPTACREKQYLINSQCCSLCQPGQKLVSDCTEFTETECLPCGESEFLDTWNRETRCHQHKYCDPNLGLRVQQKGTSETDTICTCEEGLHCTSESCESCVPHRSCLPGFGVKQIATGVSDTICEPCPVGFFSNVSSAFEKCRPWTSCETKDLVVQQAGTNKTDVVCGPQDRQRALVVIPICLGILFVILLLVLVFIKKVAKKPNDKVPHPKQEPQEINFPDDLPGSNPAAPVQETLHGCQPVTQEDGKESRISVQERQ


Columns and labels:
Macaca fascicularis CD40 = biological target: T1, Macaca fascicularis CD40; experiment: cell-based or functional assay
human CD40 [1] = biological target: human CD40 (human, UniProt P25942 21-277); experiment: cell-based or functional assay
human CD40 [2] = biological target: human CD40 (human, UniProt P25942 21-277); experiment: cell-based or functional assay; remark: listed apart in the source
[3] = biological target: T2, human CD40 expressed on stably transfected CHO-DG44 cells (human, UniProt P25942 21-277); experiment: CHO-CD40 cell RBA, competition with IZ-CD40L
T2 construct: also called CHO-CD40
Protocol: The mixture was incubated in the absence of light for 6 hours.

[4] = biological target: T3, human CD40 (BMS, CY24FEB06-01) (human, UniProt P25942 21-193); experiment: ELISA RBA, competition with IZ-CD40L;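 note: Neutravidin-coated 384-well plate, dAb–human CD40 complex bound for 2 h at room temperature, absorbance read at 450 nm after HCl stop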
T3 construct: Soluble reagent of the bead and ELISA RBA; It is detected with an anti-human IgG (Fc) mAb, so it may be a CD40-Ig fusion
Protocol: Clear walled High Bind, 384-well plates (Corning, UK) were coated with 25 μl of 1 μg/ml Neutravidin in 0.2 M carbonate-bicarbonate buffer, pH 9.4 overnight at 4° C. The following day, assay plates were washed with 0.1% (v/v) Tween PBS buffer, blocked with 1% (w/v) BSA in PBS for 1 hour at room temperature and washed again. […] Following washing of the assay plate, the dAb:human CD40 complex was incubated in the assay plate at room temperature for 2 hours with gentle agitation. […] Absorbance signal was measured using a SpectraMax® M5e plate reader (Molecular Devices) at 450 nm following neutralization with 1M HCl solution.

Binder | EC50 [3] | also measured
BMS3h-41-3 (other) VH: EVQLLEPGGGLVQPGGSLRLSCAASGFTFTEYEMIWVRKAPGKGMEWVSSISGNGANTYYADSVKGRFTISRDNSKNMLYLQMNSLRAEDTAVYYCAKEPLRFGYWGQGTLVTVSS | – | hIZCD40L-driven Cyno B Cell Proliferation EC50 (Macaca fascicularis CD40): > 7000 nM; hIZCD40L-driven Human B Cell Proliferation EC50 (human CD40 [1]): 12 nM
DMS0686 BMS3h-56-258-(G4S)5-DOM7h-11-90 (bispecific antibody) EVQLLESGGGLVQPGGSLRLSCAASGFTFRDYEMWWVRQAPGKGLERVSAINPQGTRTYYADSVKGRFTISRDNSKNTLYLQMNSLRAEDTAVYYCAKLPFYFHEWGQGTLVTVSSGGGGSGGGGSGGGGSGGGGSGGGGSDIQMTQSPSSLSASVGDRVTITCRASRPIGTMLSWYQQKPGKAPKLLILAFSRLQSGVPSRFSGSGSGTDFTLTISNLQPEDFATYYCAQAGTHPTTFGQGTKVEIKR | – | ICAM-1 Cell Assay EC50 (nM), 10% bovine serum (human CD40 [2]): 48.3 nM; ICAM-1 Cell Assay EC50 (nM), 10% human serum (human CD40 [2]): 66.6 nM
BMS3h-37-11 (other, dAb, single VH) VH: EVQLLESGGGLVQPGGSLRLSCAASGFTFEWYEMQWVRKAPGKGLEWVSAISGDGYRTYYADSVKGRFTISRDNSKNTLYLQMNSLRAEDTAVYYCAKELGYFDYRGRGTLVTVSS | 27 nM | –
BMS3h-38-8 (other, dAb, single VH) VH: EVQLLESGGGLVQPGGSLRLSCAASGFTFEEEEMIWVRQAPGKGLEWISAISGSGGSTYYADSVKGRFTIHRDNSKNTLYLQMNSLRAEDTAVYYCSKEPFRFDYRGLGTLVTVSS | 2800 nM | –
BMS3h-198-2 (other, dAb, single VH) VH: EVQPLESGGGLVQPGGSLRLSCAASGFTFAGYEMWWVRQAPGKGLERISAISGSGGSTYYADSVKGRFTISRDDSKNTLYLQMNSLRAEDTAVYYCARDPYSFDYWGQGTLVTVSS | 115 nM | –
BMS3h-41-10 (other, dAb, single VH) VH: EVQLLESGVGLVQPGGSLRLSCAASGFTFTEYEMIWVRKAPGKGLEWVSSISGNGANTYYADSVKGRFTISRDNSKNTLYLQMNSLRAEDTAVYYCAKEPLRFDNWGQGTLVTVSS | 4300 nM | –
BMS3h-38-5 (other, dAb, single VH) VH: EVQLLGSGGGLVQPGGSLRLSCAASGFTFEEEEMIWVRQAPGKGLEWVSAISGSGGSTYYADSVKGRFTISRDNSKNTLYLQMNSLRAEDTAVYYCGKEPFRFDYWGQGTLVTVSS | 1000 nM | –
BMS3h-131 (other) VL: DIQMTQSPSSLSASVGDRVTITCRANSSILWALAWYQQKPGKAPKLLIESSSGLQSGVPSRFSGSGSGTDFTLTISSLQPEDFATYYCVQNAGWPGTFGQGTKVEIKR | – | hIZCD40L-driven Cyno B Cell Proliferation EC50 (Macaca fascicularis CD40): > 7000 nM; hIZCD40L-driven Human B Cell Proliferation EC50 (human CD40 [1]): 2700 nM
BMS3h-56 (other) VH: EVQLLESGGGLVQPGGSLRLSCAASGFTFRDYEMWWVRQAPGKGLERVSAINPQGTRTYYADSVKGRFTISRDNSKNTLYLQMNSLRAEDTAVYYCAKLPFIFDYWGQGTLVTVSS | – | hIZCD40L-driven Cyno B Cell Proliferation EC50 (Macaca fascicularis CD40): > 7000 nM; hIZCD40L-driven Human B Cell Proliferation EC50 (human CD40 [1]): 713 nM
BMS3h-56-5 (other) VH: EVQLLESGGGLVQPGGSLRLSCAASGFTFRDYEMWWVRQAPGKGLERVSAINPQGTRTYYADSVMGRFTISRDNSKNTLYLQMNSLRAEDTAVYYCAKLPFTFDDWGQGTLVTVSS | – | hIZCD40L-driven Cyno B Cell Proliferation EC50 (Macaca fascicularis CD40): > 7000 nM; hIZCD40L-driven Human B Cell Proliferation EC50 (human CD40 [1]): 6 nM
BMS3h-43 (other) VH: EVQLLESGGGLVQPGGSLRLSCTASGFTFNMYEMSWVRQAPGKGLEWVSGISRRGFTTYYADSVKGRFTISRDNSKNTLYLQMNSLRAEDTAVYYCAKEPITYAMRYARFDYWGQGTLVTVSS | – | hIZCD40L-driven Cyno B Cell Proliferation EC50 (Macaca fascicularis CD40): > 7000 nM; hIZCD40L-driven Human B Cell Proliferation EC50 (human CD40 [1]): 83 nM
BMS3h-43-3 (other, dAb, single VH) VH: EVQLLESGGGLVQPGGSLRLSCTASGFTFNMYEMSWVRQAPGKGLEWVSGISRRGFTTYYADSVKGRFTISRDNFKNTLYLQMNSLRAEDTAVYYCAKEPITYDMRYARFDYGGQGTLVTVSS | 320 nM | –
BMS3h-43-5 (other, dAb, single VH) VH: EVQLLESGGGLVQPGGSLRLSCTASGFTFNTYEMSWVRQAPGKGLEWVSGIGRRGFTTYYADSVKGRFTISRDNSKNTLYLQMNSLRAEDTAVYYCAKEPITYDLRYARFDYSGQGTLVTVSS | 90 nM | –
BMS3h-202-10 (other, dAb, single VH) VH: EVQLLESGGGLVQPGGSLRLSCAASGFTFPTAEMLWVRQAPGKGLEWVSSISASGGSTYYADSVKGRFTISRDNSKNTLYLQMNSLRAEDTAVYYCAKEPVYYVATFDYWGQGTLVTVSS | 7200 nM | –
DMS0685 BMS3h-56-258-(G4S)3-DOM7h-11-90 (bispecific antibody) EVQLLESGGGLVQPGGSLRLSCAASGFTFRDYEMWWVRQAPGKGLERVSAINPQGTRTYYADSVKGRFTISRDNSKNTLYLQMNSLRAEDTAVYYCAKLPFYFHEWGQGTLVTVSSGGGGSGGGGSGGGGSDIQMTQSPSSLSASVGDRVTITCRASRPIGTMLSWYQQKPGKAPKLLILAFSRLQSGVPSRFSGSGSGTDFTLTISNLQPEDFATYYCAQAGTHPTTFGQGTKVEIKR | – | ICAM-1 Cell Assay EC50 (nM), 10% bovine serum (human CD40 [2]): 31.9 nM; ICAM-1 Cell Assay EC50 (nM), 10% human serum (human CD40 [2]): 62.4 nM
BMS3h-198-3 (other, dAb, single VH) VH: EVQLLESGGGSVQPGGSLRLSCAATGSTFAGYEMWWVRQAPGKGLERVSAISGSGGSTYYADSVKGRFTISRDDSKNTLYLQMNSLRAEDTAVYYCARDPYSYDYWGQGTLVSVSS | 330 nM | –

Now from value to binder, other results behind:

EC50 [3] | Binder | also measured
32 nM | BMS3h-37-2 (other, dAb, single VH) VH: EVQLLESGGGLVQPGGSLRLSCAASGFTFEWYEMQWVRRAPGKGLEWVSAISGDGYRTYYADSVKGRFTISRDNSKNTLYLQMNSLRAEDTAVYYCAKELGYFDYWGRGTLVTVSS | –
45 nM | BMS3h-37-4 (other, dAb, single VH) VH: EVQLLESGGGLVQPGGSLRLSCAASGFTFEWYEMQWVRKAPGKGLEWVSAISGDGYRTYYADSVKGRFTISRDNSKNTLYLQMNSLRAEDTAVYYCAKELGYFDYWGRGTLVTVSS | –
70 nM | BMS3h-198-1 (other, dAb, single VH) VH: EVQLLESGGGLVQPGGSLRLSCAASGSTIAGYEMWWVRQAPGKGLERVSAISGSGGSTYYADSVKGRFTISRDDSKNTLYLQMNSLRAEDTAVYYCARDPYSFDYWGQGTLVTVSS | EC50 [4]: 12 nM
200 nM | BMS3h-41-3 (other, dAb, single VH) VH: EVQLLEPGGGLVQPGGSLRLSCAASGFTFTEYEMIWVRKAPGKGMEWVSSISGNGANTYYADSVKGRFTISRDNSKNMLYLQMNSLRAEDTAVYYCAKEPLRFGYWGQGTLVTVSS | –
300 nM | BMS3h-193-15 (other, dAb, single VK) VL: DIQMTQSPSSLSASVGDRVTITCRASRTIERRLNWYQQKPGKAPKLLIYLASRLQSGVPSRFSGSGSGTDFTLTISSLQPEDFATYYCHPYESPPLTFGQGTKVEIKR | –
8300 nM | BMS3h-202-11 (other, dAb, single VH) VH: EVQLLESGGGLVQPGGSLRLSCAASGFTFPTAEMLWVRKAPGKGLEWVSSISASGGSTYYADSVKGRFTISRDNSKNTLYLQMNSLRAEDAAVYYCAKEPVSYVATFDYWGQGTLVTVSS | –
